Assay results: publication PMC11315690

Biological target: N-terminal structural domain of human Nogo-B protein (hNogo-B-N), residues 1-185, with human Fc fragment (human) (UniProt Q9NQC3)
Assay: SPR

Sequence of UniProt Q9NQC3 (Q9NQC3 1-185): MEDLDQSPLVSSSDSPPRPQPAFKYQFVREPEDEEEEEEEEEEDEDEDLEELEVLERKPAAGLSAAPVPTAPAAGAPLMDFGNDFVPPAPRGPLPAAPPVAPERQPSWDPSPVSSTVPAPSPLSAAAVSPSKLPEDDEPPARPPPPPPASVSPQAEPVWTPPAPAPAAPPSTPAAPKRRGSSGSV

For “human proGCG protein (hproGCG) with C-terminal Strep-tag II (natural protein)”, the Kd was 1370 nM.
